Measured values taken from patent US20150231240A1, “ANTI-C16ORF54 ANTIBODIES AND METHODS OF USE THEREOF” (priority 2012, published 2015).
Changes are numbered by the printed parent chain.

What was measured:
Format in all cases: binding
C16orf54 ECD peptides = test: Peptide crossblocking (Table 36)
human C16orf54 = target: T1, human C16orf54 (Homo sapiens, UniProt Q6UWD8); test: Flow cytometry reactivity with sarcoma cells expressing human C16orf54 (fold change over isotype); settings: for binding to human C16orf54 (flow cytometry): sarcoma cells expressing human C16orf54, 10 μg/ml antibody
T1 construct: expressed in transfected cells; host or cells: murine sarcoma cells (D42M1-huC16orf54)
T1 sequence (Q6UWD8 1-224): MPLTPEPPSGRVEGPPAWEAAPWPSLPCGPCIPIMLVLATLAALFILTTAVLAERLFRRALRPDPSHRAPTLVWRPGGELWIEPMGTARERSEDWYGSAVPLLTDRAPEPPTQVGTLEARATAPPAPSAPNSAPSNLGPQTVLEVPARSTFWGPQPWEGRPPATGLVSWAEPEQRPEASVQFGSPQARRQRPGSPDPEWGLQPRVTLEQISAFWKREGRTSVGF
Procedure: Anti-C16orf54 antibodies which bound to human C16orf54 were tested for their reactivity with human C16orf54 and their crossreactivity with C16orf54 from cynomolgous monkeys (cyno C16orf54) using flow cytometry. Sarcoma cells transfected with and expressing human C16orf54 or cyno C16orf54 were washed with PBS with 0.1% BSA, incubated with FcX receptor blocking solution (BioLegend) for 15 minutes, incubated with 10 μg/ml of anti-C16orf54 antibody for 1 hour at 4° C., washed twice with PBS with 0.1% BSA, incubated with 20 μg/ml of R-Phycoerythrin-AffiniPure F(ab′)2 Fragment Goat Anti-Mouse IgG, Fcγ Fragment Specific (Jackson ImmunoResearch) for 30 minutes at 4° C., washed twice with PBS with 0.1% BSA, incubated with the viability dye TO-PRO-3 iodide (Life Technologies), and immediately analyzed on a MACSQuant Analyzer instrument (Miltenyi). For each cell line and anti-C16orf54 antibody, a fold change was derived by dividing the median fluorescence intensity for Phycoerythrin in the live cell population for the anti-C16orf54 antibody by the median fluorescence intensity for Phycoerythrin in the live cell population for the IgG isotype control antibody.

[1] = target: T2, extracellular domain of c16orf54 (amino acids 1-31) fused to human IgG1 Fc (Homo sapiens, UniProt Q6UWD8); test: C16orf54 peptide-Fc fusion protein ELISA; settings: serial dilution of antibody; HRP-conjugated anti mouse secondary
T2 construct: the extracellular domain of c16orf54 (amino acids 1-31) either N terminal or C-terminal to a human IgG1 Fc domain; made in house; host or cells: 293 T cells, transient; Protein A purification
T2 sequence (Q6UWD8 1-31 limits assumed): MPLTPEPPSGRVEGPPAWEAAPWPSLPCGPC
Procedure: Anti-C16orf54 antibodies which bind to human C16orf54, including antibodies that are crossreactive with cyno C16orf54, were tested for their binding to various peptides derived from C16orf54 that were fused to human IgG (e.g., IgG1) constant regions to generate various peptide-Fc fusion proteins in an Fc-based ELISA. An exemplary Fc sequence comprises an IgG1 Hinge region sequence and IgG1 CH3 and […] domain sequences.
The fusion proteins were transiently expressed in 293 T cells. Protein was purified from the 293 expression supernatants by Protein A-based affinity purification. Exemplary C16 peptide-Fc fusion constructs that were made and purified are shown with their protein yield in Table 38. ELISA assays were performed by coating 384 well plates with the fusion proteins overnight at 4C. Antibodies were analyzed by serial dilution with concentrations ranging from 40 ug/mL to […]. Binding was detected with an HRP-conjugated anti mouse secondary antibody.

[2] = system: human C16orf54 extracellular domain peptides; test: C16orf54 peptide ELISA, human extracellular domain peptides; settings: human, cyno, or mouse extracellular domain peptides, not told apart; 10 μg/ml antibody
Procedure: Anti-C16orf54 antibodies which bind to human C16orf54, including antibodies that are crossreactive with cyno C16orf54, were tested for their binding to various peptides derived from C16orf54 in a peptide ELISA. A 384-well high binding black microplate (Greiner) was incubated with 2 μg/ml of protein (human, cyno, or mouse extracellular domain peptides) for 16 hours, incubated for 1 hr with a blocking buffer (PBS with 5% Fetal Bovine Serum), washed four times with TBS with Tween, incubated for 1 hour with 10 μg/ml of anti-C16orf54 antibody, washed four times with TBS with Tween, incubated for 1 hour with 10 μg/ml of Peroxidase-AffiniPure Goat Anti-Mouse IgG, Fcγ Fragment Specific (Jackson ImmunoResearch), washed four times with TBS with Tween, and peroxidase was detected with a luminometer (Molecular Devices) upon addition of SuperSignal® ELISA Pico Chemiluminescent Substrate (Thermo Scientific). The luminescence signal was determined.

B1: R29-8-57B: murine anti-C16orf54 monoclonal antibody; VH SEQ ID NO: 20, VL SEQ ID NO: 22 (antibody, V domains shown)
VH: MRVLILLWLFTAFPGILSDVQLQESGPGLVKPSQSLSLTCTVTGYSITSDYAWNWIRQFPGNKLEWMGYINYSGSTRYNPSLKSRISITRDTSKNHFFLQLNSVTPEDTATYHCARERYDGVYYGMDYWGQGTSVTVSS
VL: MDSQAQVLMSLLLWVSGTCGDIVMSQSPSSLAVSVGEKVTMSCKSSQSLLYSSNQKNYLAWYQQKPGQSPKLLIYWASTRESGVPDRFTGSGSGTDFTLTISSVKTEDLAVYYCQQYYSYRTFGGGTKLEIK
modifications: R29-8-57B heavy chain variable region; R29-8-57B light chain variable region
Peptide crossblocking (C16orf54 ECD peptides): aa1-31, aa1-15 | binding to C16orf54-expressing cells (dual binders) (human C16orf54): bind to C16orf54-expressing cells | binding to human C16orf54 (flow cytometry) (human C16orf54): bind human C16orf54 | binding to peptide-Fc fusion proteins (Fc-based ELISA) [1]: able to bind to the peptide-Fc fusion proteins | binding to peptides derived from the extracellular domain of C16orf54 (peptide ELISA) [2]: bind to the various peptides derived from the extracellular domain (ECD) of C16orf54

B2: R29-8-136C: murine anti-C16orf54 monoclonal antibody; VH SEQ ID NO: 16, VL SEQ ID NO: 18 (antibody, V domains shown)
VH: B1 VH with T76S
VL: B1 VL
modifications: R29-8-136C heavy chain variable region; R29-8-136C light chain variable region
Peptide crossblocking (C16orf54 ECD peptides): aa1-31, aa1-15 | binding to C16orf54-expressing cells (dual binders) (human C16orf54): bind to C16orf54-expressing cells | binding to human C16orf54 (flow cytometry) (human C16orf54): bind human C16orf54 | binding to peptides derived from the extracellular domain of C16orf54 (peptide ELISA) [2]: bind to the various peptides derived from the extracellular domain (ECD) of C16orf54
